From article PMC10261013, “Characterization of p38α autophosphorylation inhibitors that target the non-canonical activation pathway” (Nature Communications, 2023)
Ends that are not written are not given here. * marks the point of attachment. FITC = O=C1OC2(c3ccc(O)cc3Oc3cc(O)ccc32)c2ccc(NC(=S)*)cc21

Columns and labels:
[1] = target: T1, GST-p38α (human p38α with an N-terminal GST-tag, non-phosphorylated) (human, UniProt Q16539 1-360); experiment: thermal shift assay; GST-p38α 1.5 μM with TAB1(386-414) peptide 15 μM, alone or with NC-37 / NC-38; 20 mM TRIS pH 7.5, 100 mM NaCl, 2 mM MgCl2, 2 mM DTT; SYPRO Orange, 25 to 95 °C; conditions: both partners purified
T1 construct: p38α (MAPK14), human; non-phosphorylated; The results text says 'p38α'; the methods and the legend say GST-p38α; also called MAPK14; non-phosphorylated p38α; source: E. coli BL21 DE3 or BL21-DE3-pLysS, purified (Glutathione-Sepharose, dialysis); not shown: GST, N-terminal, kept

[2] = target: T1, GST-p38α (human p38α with an N-terminal …); experiment: fluorescence polarisation; direct binding: FITC-TAB1(386-414) 10 nM with non-phosphorylated GST-p38α 0.17–22 μM, 1 h at RT; 20 mM Tris pH 7.5, 100 mM NaCl, 1 mM DTT, 10 mM MgCl2; conditions: both partners purified

T1 sequence (Q16539 whole entry): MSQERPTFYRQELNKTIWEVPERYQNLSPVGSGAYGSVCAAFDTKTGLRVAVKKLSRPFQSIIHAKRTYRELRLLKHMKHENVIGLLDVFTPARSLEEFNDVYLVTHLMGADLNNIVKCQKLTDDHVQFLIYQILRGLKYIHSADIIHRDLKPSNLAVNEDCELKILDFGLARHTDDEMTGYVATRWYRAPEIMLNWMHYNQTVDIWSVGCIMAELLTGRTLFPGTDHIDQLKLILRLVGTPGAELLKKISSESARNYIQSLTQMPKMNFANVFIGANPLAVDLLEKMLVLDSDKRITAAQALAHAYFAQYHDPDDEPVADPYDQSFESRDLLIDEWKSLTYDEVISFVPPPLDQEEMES

Row | binding result [1] | Kd [2] | Binder
1 | binds |  | RVYPVSVPYSSAQSTSKTSVTLSLVMPSQ (also called TAB1 peptide; source: synthetic peptide, bought: GenScript) [TAB1(386-414) peptide]
2 |  | 989 ± 160 nM | {FITC}-RVYPVSVPYSSAQSTSKTSVTLSLVMPSQ (source: synthetic peptide, bought: ChinaPeptides) [FITC-TAB1(386-414) peptide]
